Here are results for two substances from paper PMC3720550.

Common to all, as to assay: UV-vis
Conditions in all cases: not stated (1 mM each of sodium phosphate, sodium citrate and sodium borate; 0.1 mM EDTA; no added salt mentioned), Polybuffer: 1 mM each of sodium phosphate, with 0.1 mM EDTA. Starting pH 9.3, titrated with 25 mM HCl., Reduced (DTT-treated, desalted) active-site dithiol form, folded, 10-25 µM protein, the oxidised (diamide) protein served as reference

For series [1], the target named is Cys12 (UniProt position 12, YTQPDCPPCVI).
A further series addresses Cys15 (UniProt position 15, PDCPPCVIVKE).
For series [2], the target named is Cys12 (UniProt position 12, YAQPDCPPCVI).

On to “Thioredoxin BC3987 (NrdH/Cp9-like small thioredoxin, C-P-P-C active site) (Bacillus cereus ATCC 14579)”, for which the results for the pKa with Cys12 [1] and with Cys15 were 7.2 and 5.1, respectively.

Consider “Thioredoxin BC3987 T8A mutant (Bacillus cereus ATCC 14579; T8A)”, for which the pKa (usually the pH at which an ionisable group is half protonated) with Cys12 [2] turned out to be 7.2.
